In US10869937B2, “Polymer derivatives, and novel polymer derivative imaging probe using same” (Nippon Kayaku Kabushiki Kaisha, priority 2016, dated 2020):

Test: Average particle size measurement with single nanoparticle size analyzer IG-1000 (induced diffraction grating method)
Format: physicochemical
Conditions: 1 mg/mL in ultrapure water, 25° C.
Description: The particle size (average particle size) of the nanoparticles according to the invention is measured by, for example, an induced diffraction grating method. An induced diffraction grating method is a method of: (1) irradiating a 1 or 2 mg/mL aqueous solution of the block copolymer of the present invention or a composition including the block copolymer with laser light, thereby forming diffraction gratings by dielectrophoresis; (2) stopping an external force that causes dielectrophoresis, measuring the annihilation rate of the diffraction gratings caused by diffusion, and (3) applying the annihilation rate to the Stokes-Einstein relational equation to obtain the particle size. For example, the particle size may be measured with a single nanoparticle size measuring apparatus, IG-1000, manufactured by Shimadzu Corp.
Measurement of the average particle sizes of the block copolymers of Synthesis Examples and Examples and compositions including those block copolymers was carried out using a single nanoparticle size analyzer, IG-1000, manufactured by Shimadzu Corp. (measurement temperature: 25° C., light intensity at t=0: 100 to 200). Regarding the sample for measuring the average particle size, a solution produced using ultrapure water to a block copolymer concentration of 1 mg/mL or 2 mg/mL and filtered through a 0.45 μm membrane filter, was used.

7-ethyl-10-hydroxycamptothecin (EHC)-Bonded and ALEXA FLUOR (registered trademark) 594 Cadaverin (Alexa)-Bonded Product of Polyethylene Glycol (2 kDa)-Polyglutamic Acid (8.3 Polymerization Units) Block Copolymer [Example 3]
average particle size: 10 nm
